Measurements: patent US20100015637A1 (AbbVie / Abbott, published 2010)
One block for each molecule: values may come before it.

Experiments:
[1] = biological target: human PlGF-1 comprising amino acids 1-137 produced in human embryonic kidney cells (human) (UniProt P49763); test: Format 1 …, capture 2-826-335, detection 1-255-713; sFlt-1 613 pmol/L (ratio 20)
[2] = biological target: human PlGF-1 comprising amino acids 1-137 produced in human embryonic kidney cells (human) (UniProt P49763); test: Format 1 …, capture 2-826-335, detection 1-255-713; sFlt-1 920 pmol/L (ratio 30)
[3] = biological target: human PlGF-1 comprising amino acids 1-137 produced in human embryonic kidney cells (human) (UniProt P49763); test: Format 3 Quantikine ELISA, capture MAb264, detection Pb264; sFlt-1 1533 pmol/L (ratio 50)
[4] = biological target: T1, human PlGF-1 comprising amino acids 1-137 produced in human embryonic kidney cells (human, UniProt P49763 19-221); test: … sandwich, capture MAb255, detection MAb826; antigen 60 pg/mL
T1 construct: Mature human PlGF-1 with 6xHis tag; also called HEK (1-137); full length HEK human PlGF-1 (1-137)
T1 sequence: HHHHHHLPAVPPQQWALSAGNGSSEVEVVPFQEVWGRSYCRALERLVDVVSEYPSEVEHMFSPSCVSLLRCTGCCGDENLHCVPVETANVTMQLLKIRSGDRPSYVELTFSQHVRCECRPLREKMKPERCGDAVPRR
In short: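 Values are chemiluminescent relative light units (RLU) from a sandwich immunoassay of human PlGF-1 antigen preparations, some of them recombinant forms made in CHO cells. Antigen levels ran from 0 to 1500 pg/mL. Capture was by a monoclonal anti-human PlGF-1 antibody bound to magnetic microparticles, and detection was by an acridinium ester-labeled monoclonal anti-human PlGF-1 antibody.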

% Inhibition [1]: 88.3% | PlGF-1 Measured [1]: 120 pg/mL | % Inhibition [2]: 90.7% | PlGF-1 Measured [2]: 95.1 pg/mL | % Inhibition [3]: 52.1% | PlGF-1 Measured [3]: 415 pg/mL
Molecule: native sFlt-1, isolated from human placental tissue (from UniProt P17948 27-687) (receptor)

RLU [4]: 101000 RLU
B1: monoclonal antibody 1-255-713 (produced by murine hybridoma cell line 1-255-713, ATCC PTA-8536) (antibody, mouse IgG2a, V domains shown)
VH: QVHLQQSGAELMKPGASVKISCKATGYTFSSYWIEWVKQRPGHGLEWIGEILPGSVSNNFNEKFKDKATLTADPSSNTAYIQVSSLTSEDSAVYYCARSTGFYYGGNYFDHWGQGTTLAVSS
VL: DVVMTQTPLSLPVSPGDQASISCRSSQSLVHSNGHTYLHWYLQKPGQSPKLLIYKVSNRFSGVPDRVSGSGSGTDFTLKISRVEAEDLGVYFCSQSTHVPPTFGGGTKLEIKR
notes: also called MAb255
